Data published in publication PMC11763338.

Molecular target: recombinant human α-synuclein protein seeds (human) (UniProt P37840)

percent inhibition of aggregation of α-syn monomer seeded by m2, cell-free ThT fluorescence at 24 h; R18D 0.05-0.25 μM pre-incubated with the seeds: 62.1%
percent inhibition of intracellular α-syn aggregation in rat cortical neurons exposed to seeds (0.14 μM), HTRF aggregate assay at 48 h; R18D 0.0625-0.5 μM added 2 h after the seeds: 37.8%
Substance: R18D (18-mer of D-arginine) (peptide)
